Data: PMC10694607

Key:
Assay in all cases: BLI
[1] = target: TRIM21–MC1 fusion protein (human) (UniProt P19474)
[2] = target: TRIM21–ME2 fusion protein (human) (UniProt P19474)
[3] = target: TRIM21–MH4 fusion protein (human) (UniProt P19474)

Kd [1]: 475 nM
Kd [2]: 753 nM
Kd [3]: 148 nM
Substance: recombinant MALT1 (BPS Bioscience), analyte in BLI (from UniProt Q9UDY8 1-824) (natural protein)
